Residues, ends and D or L forms follow the SMILES beside them. No end group written: not given here.
How the values were obtained:
Aβ1-42 [1] = molecular target: T1, Aβ1-42 (Homo sapiens, UniProt P05067); test: Amyloid Beta (1-42) Thioflavin T fibrillation (aggregation) assay; format: biochemical; design: used to monitor the formation of Aβ1-42 peptide fibrils; purchased Anaspec; details: for inhibition of Aβ1-42 fibrillation (in words): increasing concentrations of peptide, Rfu; for molar ratio inhibitor/Aβ1-42 corresponding to IC50 of fibrillation: ratio at IC50
T1 sequence (P05067 672-713 limits assumed): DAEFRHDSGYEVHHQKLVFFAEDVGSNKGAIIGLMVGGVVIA
Procedure: The Amyloid Beta (1-42) Thioflavin T Aggregation Kit was purchased from Anaspec and used to monitor the formation of Aβ1-42 peptide fibrils, according to the manufacturer's instructions, with some modifications. Thioflavin T dye was diluted to 250 μM in fibrillation buffer A and kept in the dark until use. […] Neutrophil proteins were tested in the absence and presence of protease inhibitors. […] Chymostatin was dissolved in DMSO and used at 125 μM final concentration in reactions with CG. Reactions were pipetted up and down twice in the wells with a multichannel pipette to ensure mixing, and fluorescence (ΔEX=440 nm, ΔEm=485 nm) was read every 5 minutes for 3 hours on a BioTek Synergy 2 plate reader with Gen 5 software, with a sensitivity set at 65.

Aβ1-42 [2] = molecular target: T1, Aβ1-42; test: ELISA binding of Aβ1-42 to plate-coated neutrophil proteins and derived peptides; details: for binding of Aβ1-42: 150 nM Aβ1-42, plate coated with protein/peptide at 5 μg/ml, no protease inhibitor; for binding of Aβ1-42 on addition of antiproteases: 1 mM PMSF (CAP37, NE) or 125 μM chymostatin (CG)
Procedure: CAP37, NE, and CG were purified from human neutrophils and purchased from Athens Research and Technology. BSA was from Sigma Aldrich. CAP37-derived peptides were synthesized by CS Bio Co with a purity >95%. Maxisorp plates from Nunc were coated with 100 μl neutrophil protein, peptide, or BSA diluted at 5 μg/ml in PBS with or without 1 mM PMSF purchased from Sigma Aldrich (for experiments with CAP37, NE, and BSA) or ±125 μM chymostatin purchased from Santa Cruz (for experiments with CG and BSA). Plate coating was done at room temperature for 2 hours with shaking and then at 4° C. overnight. Plates were washed three times in PBST (PBS+0.05% tween), then blocked with 3% BSA in PBST for 1 hour at room temperature with shaking. Plates were washed 3× in PBST, and 150 nM Aβ1-42 (purchased from Bachem and reconstituted in 1 mM NaOH) was added in 0.1% BSA in PBST and incubated 70 minutes at 37° C. Plates were then washed 4 times with PBST and monoclonal mouse anti-amyloid precursor protein/amyloid beta antibody, purchased from Cell Signaling Technology was added at a 1:500 dilution in 1% BSA in PBST and incubated for 1 hour at room temperature with shaking. Plates were washed 4× in PBST and donkey anti mouse HRP-conjugated secondary antibody from Jackson ImmunoResearch Laboratories was added at 1:10,000 in PBST and incubated 1 hour at room temperature with shaking, then washed 4 times in PBST. […] Sulfuric acid (5N) was added to each well to stop the reaction, and the absorbance at 492 nm was read on a Biotek Synergy II plate reader.

[3] = system: mouse neuroblastoma cell line Neuro-2a; test: Neurotoxicity assay of Aβ1-42 fibrils/oligomers (trypan blue cell death); format: cell-based; details: for effect on Aβ1-42 oligomer toxicity: oligomers formed 15 min in presence of increasing concentrations; for effect on Aβ1-42 oligomer toxicity / effect on toxicity of Aβ1-42 fibrils: 18 μM Aβ1-42 on cells, 24 hours; for effect on toxicity of Aβ1-42 fibrils: protein at IC50 of fibrillation pre-incubated with Aβ1-42 24 hours in fibrillation conditions; for concentration at which significant inhibition of oligomer toxicity starts: tested at 0.5, 1, 2 and 4-fold the fibrillation IC50
Procedure: A mouse neuroblastoma cell line Neuro-2a from ATCC was used for these experiments. Cells were grown and seeded in 96 well plates at 20,000 cells per well in complete medium (MEM α, nucleosides, no phenol red from Gibco, with 10% heat inactivated fetal bovine serum from Gibco, and penicillin/streptomycin from Lonza). At 24 hours after seeding, cells were washed with warmed MEM α, and then incubated in 90 μl MEM α+N2 Supplements+20 μl test sample (Aβ1-42 prepared as described below). Cells were incubated another 24 hours at 37° C., and then dislodged by pipetting up and down vigorously. 10 μl of cells were added to 10 μl trypan blue dye (0.4% solution) from BioRad, mixed and counted in a BioRad TC20 cell counter. The percent of living and dead cells was recorded for each well. In the case of the water and Triton X100 controls, 20 μl MEM α+N2 Supplements was added instead of the test sample and, just before counting the cells, 20 μl of medium was removed and replaced with 20 μl water or Triton X100 at a final concentration of 0.1%.
Monomeric Aβ1-42 (hexafluoroisopropanol treated Aβ1-42) from Bachem was reconstituted at 5 mM in anhydrous DMSO. Untreated Aβ1-42 from CS Bio was also used in these experiments. It was first treated with 1 mM in hexafluoroisopropanol from Sigma Aldrich, incubated 30 min at room temperature, and left open to dry in the fume hood overnight. It was then vacuum desiccated for 1 hour at room temperature. Dry films of Aβ1-42 were stored at −20° C. until use to keep it under a monomeric form. Aβ1-42 from CS Bio was also reconstituted in anhydrous DMSO at 5 mM before use.
To prepare the fibril and oligomer test samples, monomeric Aβ1-42 was placed under conditions favoring either formation of fibrils or oligomers. To form fibrils, 100 μM Aβ1-42 was added to Anaspec fibrillation buffer A±neutrophil protein, and incubated at 37° C. 24 hours before addition to the cells at a final concentration of 18 μM. Neutrophil proteins were used at Aβ/Protein ratios that led to 50% inhibition of fibrillation (IC50), previously determined for each protein in the fibrillation assay. To form oligomers, MEM α+N2 Supplements was used instead of the fibrillation buffer A±increasing concentrations of neutrophil protein or CAP37-derived peptide. Each mixture was then added to a tube containing freshly prepared Aβ1-42 in DMSO at a final concentration of 100 μM, and incubated 15 min at room temperature. These test samples were then tested on the cells at a final concentration of 18 μM.
Oligomers were formed by incubating 100 μM Aβ1-42 in MEMα+N2 Supplements at 4° C. for 3 days. […] Finally, these oligomers were added to neurons at a final concentration of 18 μM, and percent cell death was measured at 24 h.

| Molecule | inhibition of Aβ1-42 fibrillation (in words) (Aβ1-42 [1]) | binding of Aβ1-42 (Aβ1-42 [2]) | effect on Aβ1-42 oligomer toxicity [3] | also measured |
| --- | --- | --- | --- | --- |
| 95-122 5RMP: 95-122 with two AEEA mini-PEG molecules and 4 arginines at the N-terminal end and one arginine at the C-terminal end (RRRRLDREANLTSSVTILPLPLQNATVEAGTRR; also: two AEEA mini-PEG molecules, place not given here) | did not inhibit fibrillation | does not interact | – | – |
| 95-122: wild-type CAP37-derived peptide 95-122 (LDREANLTSSVTILPLPLQNATVEAGTR) | – | did not bind | – | – |
| CSCC[C@H](NC(=O)[C@H](CO)NC(=O)[C@@H](NC(=O)[C@H](CCCNC(=N)N)NC(=O)CNC(=O)[C@H](Cc1c[nH]c2ccccc12)NC(=O)CNC(=O)[C@H](C)NC(=O)[C@@H](NC(=O)[C@@H](NC(=O)[C@H](CS)NC(=O)[C@H](CC(C)C)NC(=O)[C@@H](NC(=O)CN)[C@@H](C)O)[C@@H](C)O)C(C)C)C(C)C)C(=O)N[C@@H](CCCNC(=N)N)C(=O)N[C@@H](CCCNC(=N)N)C(=O)NCC(=O)N[C@H](C(=O)N[C@@H](CCCNC(=N)N)C(=O)N[C@H](C(=O)N[C@@H](CC(C)C)C(=O)N[C@@H](CCCNC(=N)N)C(=O)N[C@@H](CCC(=O)O)C(=O)N[C@H](C(=O)N[C@@H](CCC(N)=O)C(=O)N[C@@H](CC(C)C)C(=O)O)C(C)C)[C@@H](C)O)[C@@H](C)O [CG119-144 D137R] (H-GTLCTVAGWGRVSMRRGTRTLREVQL-OH; N-terminus and C-terminus assumed) | inhibitory effects | increased the binding | significantly decrease | molar ratio inhibitor/Aβ1-42 corresponding to IC50 of fibrillation (Aβ1-42 [1]): 1/3; effect on neurotoxicity of preformed Aβ1-42 oligomers ([3]; oligomers formed first (3 days, 4° C.), then incubated with peptide at 2×IC50 for 3 days, 18 μM on neurons, cell death at 24 h): significantly reversed |
| CG119-144 ΔR129V130: mutant CG-derived peptide, CG119-144 with positively charged R129 (and V130) deleted (GTLCTVAGWGSMRRGTDTLREVQL) | no inhibitory effect | abolished the binding | – | – |
| CG: cathepsin G, full-length, purified from human neutrophils | – | stronger | significantly inhibited | binding of Aβ1-42 on addition of antiproteases (Aβ1-42 [2]): not significantly changed; effect on toxicity of Aβ1-42 fibrils [3]: significant inhibition; concentration at which significant inhibition of oligomer toxicity starts [3]: 0.5 ×IC50 |
| GTLCTVAGWGRVSMRRGTDTLREVQL (Completely synthesized in the lab. Amino acids 119-144 of Cathepsin G protein.) [CG119-144] | no inhibitory effect | Highest levels | – | – |
| GTLCTVAGWGRVSMRRGTDTLRPRVQL (Completely synthesized in the lab. Peptide CG119-144.) [CG119-144 E141PR] | inhibitory effects | increased the binding | – | – |
| GTRCQVAGWGSQRSGGRLSRFPRFVNV (Completely synthesized in the lab. Amino acids 120-146 of CAP37 protein.) [120-146 QR, wild-type CAP37-derived peptide, amino acids 120-146 of CAP37 protein] | – | binds | – | – |
| NE: neutrophil elastase, full-length, purified from human neutrophils | – | almost undetectable | significantly inhibited | binding of Aβ1-42 on addition of antiproteases (Aβ1-42 [2]): significantly increased; effect on toxicity of Aβ1-42 fibrils [3]: significant inhibition; concentration at which significant inhibition of oligomer toxicity starts [3]: 2 ×IC50 |
| NQGRHFCGGALIHARFVMTAASCFQ (Completely synthesized in the lab. Amino acids 20-44 of CAP37 protein.) [20-44 CC, wild-type CAP37-derived peptide, amino acids 20-44 of CAP37 protein] | – | binds | – | – |
| NQGRHFSGGALIHARFVMTAASCFQ (Completely synthesized in the lab. Peptide CAP3720-44C26S.) [20-44 SC, mutant CAP37-derived peptide 20-44] | – | binds | – | – |
| CAP37: cationic antimicrobial protein of molecular weight 37 KDa, full-length, purified from human neutrophils (protein) IVGGRKARPRQFPFLASIQNQGRHFCGGALIHARFVMTAASCFQSQNPGVSTVVLGAYDLRRRERQSRQTFSISSMSENGYDPQQNLNDLMLLQLDREANLTSSVTILPLPLQNATVEAGTRCQVAGWGSQRSGGRLSRFPRFVNVTVTPEDQCRPNNVCTGVLTRRGGICNGDGGTPLVCEGLAHGVASFSLGPCGRGPDFFTRVALFRDWIDGVLNNPGP | – | stronger | does not inhibit | molar ratio inhibitor/Aβ1-42 corresponding to IC50 of fibrillation (Aβ1-42 [1]): 1/11; binding of Aβ1-42 on addition of antiproteases (Aβ1-42 [2]): not significantly changed; effect on toxicity of Aβ1-42 fibrils [3]: no effect |
